Measurements reported in publication PMC8065156, “Specificity of AMPylation of the human chaperone BiP is mediated by TPR motifs of FICD” (Nature Communications, 2021).
Residue numbers refer to the chain shown, from its start. Numbers in names are those of the source. Blank lines part the entries; values can stand above or below the binder they belong to.

Tests used:
[1] = target: T1, BiP 19–654 (human, UniProt P11021 19-654); experiment: cell-based or functional assay
[2] = target: T2, BiP 28–549 T229A (human, UniProt P11021 28-549, T229A, T518 covalently linked through TReND-2 to C404 of FICD); experiment: crystal structure; complex covalently linked through TReND-2 (C404 of FICD to T518 of BiP); crystallised with 1 mM AMP-PNP, 1 mM MgCl2, 10% glycerol; 0.2 M NaCl, 0.1 M Na/K phosphate pH 6.2, 10% PEG 8000, 19 °C; conditions: both partners purified
T2 construct: BiP, human, residues 28-549 of NP_005338.1; also called complexed BiP; source: E. coli Rosetta (DE3), purified (Ni-NTA, SEC); not shown: His6, N-terminal, cleaved

[3] = target: T1, BiP 19–654
[4] = target: T1, BiP 19–654; remark: listed apart in the source
[5] = target: T3, BiP 19–654 T229A T518A (human, UniProt P11021 19-654, T229A | T518A); experiment: SEC; 5 µM FICD incubated with 100 µM BiP in HKM buffer with 5 mM ATP for at least 2 h; Superdex 10/300 75 pg; conditions: both partners purified
T3 construct: BiP, human, residues 19-654 of NP_005338.1; source: E. coli Rosetta (DE3), purified (Ni-NTA, SEC)

[6] = target: BiP 19–654 V415A (human, UniProt P11021 19-654, V415A); experiment: cell-based or functional assay
[7] = target: BiP 19–654 E217A (human, UniProt P11021 19-654, E217A); experiment: cell-based or functional assay
[8] = target: BiP 19–654 D238A (human, UniProt P11021 19-654, D238A); experiment: cell-based or functional assay
[9] = target: BiP 19–654 R197A (human, UniProt P11021 19-654, R197A); experiment: cell-based or functional assay
[10] = target: BiP 19–654 V241A (human, UniProt P11021 19-654, V241A); experiment: cell-based or functional assay
Chain of BiP 19–654 V241A (P11021 19-654 V241A): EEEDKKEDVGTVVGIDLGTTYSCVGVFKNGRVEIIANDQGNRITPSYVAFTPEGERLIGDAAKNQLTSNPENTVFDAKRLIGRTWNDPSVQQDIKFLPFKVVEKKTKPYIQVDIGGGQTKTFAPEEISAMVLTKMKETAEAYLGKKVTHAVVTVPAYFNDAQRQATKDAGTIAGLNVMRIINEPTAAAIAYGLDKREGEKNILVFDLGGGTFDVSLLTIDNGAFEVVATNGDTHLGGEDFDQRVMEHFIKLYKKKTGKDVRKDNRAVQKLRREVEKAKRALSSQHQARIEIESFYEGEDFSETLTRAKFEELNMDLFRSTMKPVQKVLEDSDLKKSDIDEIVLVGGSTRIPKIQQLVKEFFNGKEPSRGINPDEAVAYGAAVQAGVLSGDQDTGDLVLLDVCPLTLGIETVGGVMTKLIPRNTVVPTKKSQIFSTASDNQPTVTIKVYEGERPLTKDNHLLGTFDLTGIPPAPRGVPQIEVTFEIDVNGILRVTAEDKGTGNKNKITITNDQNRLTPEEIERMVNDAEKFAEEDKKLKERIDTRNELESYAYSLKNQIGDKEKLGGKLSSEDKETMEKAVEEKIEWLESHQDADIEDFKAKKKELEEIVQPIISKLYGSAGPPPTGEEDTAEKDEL

T1 sequence (P11021 19-654): as the sequence (P11021 19-654 V241A) above, with A223V counted along it
Chain of BiP 19–654 V415A (P11021 19-654 V415A): as the sequence (P11021 19-654 V241A) above, with A223V, V397A counted along it
Chain of BiP 19–654 E217A (P11021 19-654 E217A): as the sequence (P11021 19-654 V241A) above, with E199A, A223V counted along it
Chain of BiP 19–654 R197A (P11021 19-654 R197A): as the sequence (P11021 19-654 V241A) above, with R179A, A223V counted along it
T3 sequence (P11021 19-654 T229A/T518A): as the sequence (P11021 19-654 V241A) above, with T211A, A223V, T500A counted along it
Chain of BiP 19–654 D238A (P11021 19-654 D238A): as the sequence (P11021 19-654 V241A) above, with D220A, A223V counted along it
T2 sequence (P11021 28-549 T229A): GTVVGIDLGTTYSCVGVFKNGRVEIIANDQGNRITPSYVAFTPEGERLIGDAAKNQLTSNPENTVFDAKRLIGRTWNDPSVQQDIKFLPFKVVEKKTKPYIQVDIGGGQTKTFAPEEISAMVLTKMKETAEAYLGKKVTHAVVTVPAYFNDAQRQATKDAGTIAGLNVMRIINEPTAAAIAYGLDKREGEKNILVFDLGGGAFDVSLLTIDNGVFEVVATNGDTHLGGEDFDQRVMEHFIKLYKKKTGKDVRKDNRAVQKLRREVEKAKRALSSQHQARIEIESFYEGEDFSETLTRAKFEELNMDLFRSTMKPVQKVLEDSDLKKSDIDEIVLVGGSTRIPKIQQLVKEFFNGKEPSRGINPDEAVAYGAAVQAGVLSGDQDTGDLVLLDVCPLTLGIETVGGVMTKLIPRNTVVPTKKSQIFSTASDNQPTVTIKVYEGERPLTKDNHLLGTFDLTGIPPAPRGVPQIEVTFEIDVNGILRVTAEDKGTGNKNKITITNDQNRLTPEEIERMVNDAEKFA

rate of covalent ternary complex formation (SDS-PAGE, densitometry) with 0.5 mM ATP against 0.5 mM ADP [1]: ~15 fold faster
rate of covalent ternary complex formation (SDS-PAGE, densitometry) without nucleotide against 0.5 mM ATP [1]: 173 fold slower
B1: FICD 102–445 E234G E404C^TReND-2 (enzyme, human, UniProt Q9BVA6 102-445, looked up)
chain: GKLEARAALNQALEMKRQGKREKAQKLFMHALKMDPDFVDALTEFGIFSEEDKDIIQADYLYTRALTISPYHEKALVNRDRTLPLVEEIDQRYFSIIDSKVKKVMSIPKGNSALRRVMEETYYHHIYHTVAIGGNTLTLSEIRHILETRYAVPGKSLEEQNEVIGMHAAMKYINTTLVSRIGSVTISDVLEIHRRVLGYVDPVEAGRFRTTQVLVGHHIPPHPQDVEKQMQEFVQWLNSEEAMNLHPVEFAALAHYKLVYIHPFIDGNGRTSRLLMNLILMQAGYPPITIRKEQRSDYYHVLCAANEGDVRPFIRFIAKCTETTLDTLLFATTEYSVALPEAQP
modifications: TReND-2 (thiol-reactive nucleotide derivative) on C404

binding result [2]: binds
B2: FICD 102–445 T168A T183A E234G L258D E404C^TReND-2 (enzyme, human, UniProt Q9BVA6 102-445, looked up)
chain: B1 chain with T67A, T82A, L157D
modifications: TReND-2 (thiol-reactive nucleotide derivative) on C404, covalently linked to T518 of BiP
notes: FICD (HYPE), human, residues 102-445 of NP_009007.2; also called FICD^TReND-2; HYPE; source: E. coli Rosetta (DE3), purified (Ni-NTA, SEC)

AMPylation of BiP 19–654 WT by the FICD 102–458 L258D mutant, 30 min, western blot with αAMP antibody, against FICD L258D [3]: 80 % reduction
B3: FICD 102–458 L258D E105A (enzyme)
chain: GKLAARAALNQALEMKRQGKREKAQKLFMHALKMDPDFVDALTEFGIFSEEDKDIIQADYLYTRALTISPYHEKALVNRDRTLPLVEEIDQRYFSIIDSKVKKVMSIPKGNSALRRVMEETYYHHIYHTVAIEGNTLTLSEIRHILETRYAVPGKSDEEQNEVIGMHAAMKYINTTLVSRIGSVTISDVLEIHRRVLGYVDPVEAGRFRTTQVLVGHHIPPHPQDVEKQMQEFVQWLNSEEAMNLHPVEFAALAHYKLVYIHPFIDGNGRTSRLLMNLILMQAGYPPITIRKEQRSDYYHVLEAANEGDVRPFIRFIAKCTETTLDTLLFATTEYSVALPEAQPNHSGFKETLPVKP

AMPylation of BiP 19–654 WT by the FICD 102–458 L258D mutant, 30 min, western blot with αAMP antibody, against FICD L258D [3]: > 98 % reduction
B4: FICD 102–458 L258D K127A (enzyme)
chain: B3 chain with A4E, K26A

AMPylation of BiP 19–654 WT by the FICD 102–458 L258D Fic-domain mutant, 30 min, western blot with αAMP antibody, against FICD L258D [4]: 75 % impaired
B5: FICD 102–458 L258D E404A (enzyme)
chain: B3 chain with A4E, E303A

AMPylation of BiP 19–654 WT by the FICD 102–458 L258D Fic-domain mutant, 30 min, western blot with αAMP antibody, against FICD L258D [4]: 60 % impaired
B6: FICD 102–458 L258D H401A (enzyme)
chain: B3 chain with A4E, H300A

AMPylation of BiP 19–654 WT by the FICD 102–458 L258D mutant, 30 min, western blot with αAMP antibody, against FICD L258D [3]: > 98 % reduction
B7: FICD 102–458 L258D K124A (enzyme)
chain: B3 chain with A4E, K23A

AMPylation of BiP 19–654 WT by the FICD 102–458 L258D Fic-domain mutant, 30 min, western blot with αAMP antibody, against FICD L258D [4]: 95 % decrease
B8: FICD 102–458 L258D R396A (enzyme)
chain: B3 chain with A4E, R295A

AMPylation of BiP 19–654 WT by the FICD 102–458 L258D Fic-domain mutant, 30 min, western blot with αAMP antibody, against FICD L258D [4]: 45 % impaired
B9: FICD 102–458 L258D H318A (enzyme)
chain: B3 chain with A4E, H217A

AMPylation of BiP 19–654 WT by the FICD 102–458 L258D mutant, 30 min, western blot with αAMP antibody, against FICD L258D [3]: > 98 % reduction
B10: FICD 102–458 L258D K121A (enzyme)
chain: B3 chain with A4E, K20A

binding result [5]: binds
AMPylation of the BiP 19–654 mutant by FICD 102–458 L258D, 30 min, western blot with αAMP antibody, against BiP WT [6]: 70 % decrease
AMPylation of the BiP 19–654 mutant by FICD 102–458 L258D, 30 min, western blot with αAMP antibody, against BiP WT [7]: > 80 % decrease
AMPylation of the BiP 19–654 mutant by FICD 102–458 L258D, 30 min, western blot with αAMP antibody, against BiP WT [8]: > 80 % decrease
AMPylation of the BiP 19–654 mutant by FICD 102–458 L258D, 30 min, western blot with αAMP antibody, against BiP WT [9]: > 80 % decrease
AMPylation of the BiP 19–654 mutant by FICD 102–458 L258D, 30 min, western blot with αAMP antibody, against BiP WT [10]: > 95 % decrease
B11: FICD 102–458 L258D (enzyme, human, UniProt Q9BVA6 102-458, looked up)
chain: B3 chain with A4E
notes: FICD (HYPE), human, residues 102-458 of NP_009007.2; also called FICD L258D; monomeric FICD; source: E. coli Rosetta (DE3), purified (Ni-NTA, SEC)
